Results taken from patent publication US10526416B2, “Anti-HER3 antibodies and uses of same” (Yeda Research and Development Co. Ltd., priority 2014, dated 2020).

Assays:
denatured form of HER3 = denatured form of HER3 (Homo sapiens, UniProt P21860); assay: Western blot detection of HER3 in T47D cell lysate (mAb as primary Ab); format: binding
Method: FIGS. 1A-E show hybridoma Screening and mAb Isotyping. (FIG. 1A) Mice were immunized with recombinant IgB3. (FIG. 1B) The hybridoma supernatant screening using ELISA, was performed on 96 well-plate coated with IgB3 (1 μg/ml) or with a human IgG. The plates were blocked with PBS-1% BSA and incubated for 1 h with hybridoma supernatants, followed by a second incubation for 1 h with HRP-labeled anti-mouse IgG and subsequently detected by 2,2′-azino-bis (3-ethylbenzothiazoline-6-sulfonic acid) addition. The OD at 415 nm was then measured using an ELISA microplate reader. (FIG. 1C) The second step of the screening was performed by immunoprecipitation (IP). Anti-mouse IgG beads were incubated first with the hybridoma supernatant and subsequently with total cell lysate from HER3-expressing T47D cells. (FIG. 1D) The mAbs directed to HER3 were isotyped using ELISA. […] (FIG. 1E) Finally the ability of the mAbs to detect HER3, used as primary Ab in a Western Blot experiment, was determined on cell lysate from T47D cells.
Cells were grown under specified conditions or treated as indicated. […] Antibody binding to membrane blots was detected using horseradish peroxidase-secondary antibodies (Jackson ImmunoResearch Laboratories), followed by treatment with ECL Western blotting detection reagents (GE Healthcare). […]

BXPC3-luc cells = assay: Antibody-dependent cellular cytotoxicity (ADCC) luciferase assay with human PBMC; format: cell-based; conditions: 24 h
Method: (FIGS. 5A and 5B) The mAb ability to degrade HER3 after cell treatment was determined as follows. N87 cells were treated for 3 h at 37° C. with 10 μg/ml mAb. After cell lysis and protein extraction, the samples were subjected to immunoblotting with the indicated Ab. (FIG. 5C) The experiment shown in FIG. 5A was performed on 6 other cancer cell lines. (FIG. 5D) The mAb capacity to induce ADCC is reported. BXPC3-luc cells were incubated with the indicated mAbs and secondarily with human PBMC cells for 24 h. Cell killing was detected by measuring the luminescence after final addition of luciferine. *** […], ANOVA and post hoc tests.
ADCC was evaluated with a luciferase-activity assay. Using 96-well white plates, BXPC3-luc (4,000 cells/well) were pre-incubated for 30 min with the indicated antibodies. Ficoll-purified human peripheral blood mononuclear cells (PBMCs) from buffy coat were then added at a 10:1 effector to target cell ratio (E:T). […] Bioluminescence was determined using the Wallac Trilux 1450 Microbeta liquid scintillation and luminescence counter (Perkin-Elmer, MA). Percentage of cellular cytotoxicity was calculated using the following formula: percentage of specific lysis=[bioluminescence in experimental point−basal bioluminescence]/[bioluminescence in total lysis−basal bioluminescence]×100. […]

denatured form of HER3, sequence (P21860 20-1342): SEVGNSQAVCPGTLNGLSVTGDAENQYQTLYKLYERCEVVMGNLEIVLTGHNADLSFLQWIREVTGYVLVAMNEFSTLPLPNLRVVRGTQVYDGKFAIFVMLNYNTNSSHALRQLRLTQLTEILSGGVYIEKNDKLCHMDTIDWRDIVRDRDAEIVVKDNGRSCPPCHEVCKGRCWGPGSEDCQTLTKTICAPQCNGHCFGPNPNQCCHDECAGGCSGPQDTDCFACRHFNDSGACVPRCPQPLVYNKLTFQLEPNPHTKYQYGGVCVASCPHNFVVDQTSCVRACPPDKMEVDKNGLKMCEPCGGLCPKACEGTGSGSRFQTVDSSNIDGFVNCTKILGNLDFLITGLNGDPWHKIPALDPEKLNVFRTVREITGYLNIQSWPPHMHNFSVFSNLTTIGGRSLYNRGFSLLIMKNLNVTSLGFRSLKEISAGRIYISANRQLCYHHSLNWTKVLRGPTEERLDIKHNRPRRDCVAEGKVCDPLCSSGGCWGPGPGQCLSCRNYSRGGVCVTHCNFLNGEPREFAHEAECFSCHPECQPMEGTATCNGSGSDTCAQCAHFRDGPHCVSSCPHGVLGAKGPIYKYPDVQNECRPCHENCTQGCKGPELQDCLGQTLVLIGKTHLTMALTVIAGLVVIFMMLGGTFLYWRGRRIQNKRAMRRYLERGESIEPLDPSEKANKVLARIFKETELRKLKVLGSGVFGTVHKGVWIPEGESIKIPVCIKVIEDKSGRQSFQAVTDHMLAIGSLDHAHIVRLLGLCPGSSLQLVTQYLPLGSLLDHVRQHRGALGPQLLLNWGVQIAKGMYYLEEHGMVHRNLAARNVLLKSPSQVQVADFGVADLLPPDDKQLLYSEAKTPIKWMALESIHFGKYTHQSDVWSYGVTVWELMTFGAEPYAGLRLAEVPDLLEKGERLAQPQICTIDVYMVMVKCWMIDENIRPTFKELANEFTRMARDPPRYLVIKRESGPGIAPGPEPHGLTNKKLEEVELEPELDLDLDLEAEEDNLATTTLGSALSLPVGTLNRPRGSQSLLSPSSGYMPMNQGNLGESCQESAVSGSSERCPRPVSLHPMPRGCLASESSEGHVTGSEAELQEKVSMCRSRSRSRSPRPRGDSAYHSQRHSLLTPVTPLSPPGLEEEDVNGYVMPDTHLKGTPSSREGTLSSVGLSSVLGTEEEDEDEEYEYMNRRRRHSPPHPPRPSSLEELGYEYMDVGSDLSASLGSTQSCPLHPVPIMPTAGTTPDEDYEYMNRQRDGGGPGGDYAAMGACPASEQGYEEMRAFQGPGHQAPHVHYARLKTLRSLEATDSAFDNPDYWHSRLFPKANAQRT

B1: NG83: anti-HER3 mAb; light chain CDRs SEQ ID NOs: 7-9, heavy chain CDRs 10-12 (antibody, V domains shown)
VH: QIQLVQSGPELKKRGETVKISCKASGYTFTNYGMNWVRQAPGKGLKCMGWINTYAGEPTYADDFKGRFAFSLDSSASTAYLQINNLKNEDMATYFCARGGITGAMDYWGQGTSVTVSS
VL: DVVMTQKTSSLSTSLGDRVTISCRASQDIRNYLNWYQQKPDGTVKLLIYYTSRLHSGVPSRFSGSGSGTDYSLTISDLEQEDIATYFCQQGNTLPWTFGGGTKLAIK
modifications: VH chain of NG83 polypeptide; VL chain of NG83 polypeptide
- recognition of HER3 in western blotting (denatured form of HER3): able to recognize the denatured form of HER3
- induction of ADCC (BXPC3-luc cells): strongly or moderately induced ADCC
